From the nanobody polyreactivity screen of Harvey et al. (2022)

Test: yeast display, Sf9 membrane polyspecificity reagent, FACS + sequencing; frameworks hold sequencing errors
Method in brief: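 Using colony PCR, genes from sorted yeast display clones were amplified, then sequenced on MiSeq at 2 × 250 and filtered by CDR length. The clones had been stained with 10% biotinylated, detergent-solubilized Sf9 membrane reagent for 1 hour at 4 °C and sorted by FACS into low and high (top ~1%) gates on anti-HA and streptavidin fluorescence. Polyreactivity labels come from the gate of origin.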

Sequence	polyreactivity (PSR sort gate)
QVQLVESGGGLVQAGGSLSLSSAASGRTFSGYAMGWYRQAPGKERELVAAIDRGDGTNYADSVKGRFTISRDNAKNTVYLQMNSLKPEDTAVYYCAADYSYGSTSHTYTGFDYWGQGTQVTVSS	low polyreactivity
QVQLVESGGGLVQAGGSLSLTCAASGRILYRYAMGWYRPAPGKERDLVAAISWSGGSTYYADSVKGRFTISRDNAKNTVYLQLYSLKPEDTAVYYCNAVRASRSGGFDYWGQGTQVTVSS	high polyreactivity
QVQLVESGGGLVQAGGSLSLTWAASGRTFLEYTMGWYRQAPGKERELVAAISSTGGSTNYADSVKGRFTISRDNAKNSVYLQMNSVKPEDTAVYYCAARLRRRSATSTRMGYWGLGTQVTVSS	high polyreactivity
QVQLVESGGGLVQAGGSPRLSCAASGRIFGVNAMGWYRQAPGKERELVAAISVSGDSTYYADSVKGRFTISRDNAKNTVYLQMNSLKPEDTAVYYCYAGYTFVPADLTDEYYWGQGTQVTVSS	low polyreactivity
QVQLVESGGGLVQAGGSPRLSCAASGRTFRSNAMGWYRQAPGKERELVAAISWSGGSTYYADSVKGRFTISRDNAKNTVYLQLNSLKPEDTAVYYCAAGSYWSPYGQSFWPKYDYWGQGSQVTVSS	high polyreactivity
QVQLVESGGGLVQAGGSRRISWAASGSTFPWNVMGWYRQAPGKERELVAAISSSDGRTYYADSVKGRFTISRDNAKNTVYLQMNSLNPDDTAVDYCAASVAYYWYRTWLFDYDYWGQGTEVTVSS	high polyreactivity
QVQLVESGGGLVQAGGSRRLSCAASGLTFANYVMGWYIQAPGKERELVAAISRSGGSTYYADSVKGRFTISRDNAKNTVYLQMNSLNPEDTAVYYCAAAALDPKGSRYDYWGQGTQVTVSS	low polyreactivity
QVQLVESGGGLVQAGGSRRLSCAASGLTVHDNGMGWYRQAPGQEREVVAAISWSDGTTYYADSVKGRVSISRDNAKNTVYLQMNSLKPEDTAVFYCAAEAYYFWDLVDEDYWGQGTQVTVSS	high polyreactivity
QVQLVESGGGLVQAGGSRRLSCAASGNTFTWYTMGWYRQAPAKERELVAVITSDGSTYYADSVKGRFTISRDNAKNTVYLQMNSLKPEDTAVYYCNALSADWYPEEDYWGQGTQVTVSS	low polyreactivity
QVQLVESGGGLVQAGGSRRLSCAASGRIFGVYAMGWYRQAPGKERELVAAIDRRGGRTYYADSVKGRFTISRDNAKNTVYLQMNSLKPEDTAVYYFATARYRADMGYWGQGTQVTVSS	high polyreactivity
QVQLVESGGGLVQAGGSRRLSCAASGRTFYKYAMGWYRQAPGKERELVAAISGGGTTNYADSVKGRFTISRDNAKNTVYLQMNSLKPEDTAVYYCNAARTRWATGYDYWGQGTQVTVSS	low polyreactivity
QVQLVESGGGLVQAGGSRRLSCAASGSIFIPYVMGWYRQAPGKERELVAVITSGGDTYYADSVKGRFTISRDNAKNTVYLQMNSLKPEDTAVYYCNATFWYPPWWYEYDYWGQGTQVTVSS	low polyreactivity
QVQLVESGGGLVQAGGSRRLSCAASGSIFYYNTMGWSRQAPGKERELVAAMRFDDGSTYYADSVKGRFTISRDNAKYTVYLQMNSLKPEDTAVYYCSADWIVVSEFGLDYHMDYWGQGNQVTVSS	low polyreactivity
QVQLVESGGGLVQAGGSRRLSCAASGSTFRANAMGWYRQAPGKERELVAAITSSGGSTYYADSVKGRFTISRDNAKNTVYLQMNSLKPEDTAVYYCAAYPRPYIGYTDGYVWYEFDYWGQGTQVTVSS	low polyreactivity
QVQLVESGGGLVQAGGSRRLSCADSGSIFDQYTMGWSRQAPGKEWELVAGISSGGITNYADSVKGRFTLSRDNAKNTVYLQMTSLKPEDTAVYYCPADNWDLAEYDYWGQGPQVTVSS	low polyreactivity
QVQLVESGGGLVQAGGSRRLTCAASGSTFTQYPMGWYRQAPGKERELVAGISWGGSSTYYADSVKGRFTISRDNAKNTVYLEMNSLKPEDSEVYYCASAVWREYGYYFVYWDYSWGQGTQGTVSS	low polyreactivity
QVQLVESGGGLVQAGGSRSLSCAASGSIFLVNAMGWYRQAPGKERELVAAINSGGSTYYADSVKGRFTISRDNAKNTVYLQMNSLKPEDTAVYYCAADFWLKVWQDTDYDYDYWGQGTQVTVSS	low polyreactivity
QVQLVESGGGLVQAGGSVRLSCAASGRTSAWYAMGWYRQAPVKERELVADISGSADSTYYADSVKGRFTISRDNAKYTVYVQMHSLKPEDTAVYYRATSISTPTGDPFDYWGQRTQVTVSS	low polyreactivity
QVQLVESGGGLVQAGGSVRLSCAASGSIFGYYALGWYRQAPGTERELVAAISSGGSTKYADSVKGRFTISRDNAKNTVYLQMNSLKPEDTAVYYCATRIRSGSYPYPRYDYWGQGTQVTVSS	high polyreactivity
QVQLVESGGGLVQAGGSVRLSCAASGSTFYHYALGWYRQAPGKERELVAAISWYGGSTYYADSVKGRFTISRDNAKNTVYLQMNSLKPEDTAVYYCAARGRARQRTSFEYWGQGTQVTVSS	high polyreactivity
QVQLVESGGGLVQAGGTLPLSCAASGYTISRNAKGWYRQAPGKARELDAAISRGGRTNYADSVKGRFTISRDNAKNSVYLHLNSLKPEDTAVYYCAANSTTGLRSPRGAGGHDYWGQGTQVTVSS	high polyreactivity
QVQLVESGGGLVQAGGTLRISCAASGSTAYVMGWYRQAPGKEMELVAAISKSGGSTYYADSVKGRFTISRDNAKNTVYLQMNSLKPEDTAVYYCAALYPTTTAYRYGYWGQGTQVTVSS	high polyreactivity

Sequence	polyreactivity (PSR sort gate)
QVQLVESGGGLVQAGGTLRLICAASGFTISKYAMGWYRQAPGKERELVAVISSGGLTNYADSVKGRFTISRDNAKNTVYLQMNSLKPEDSEVYYCAAIGWRTRSRFVYWGQGTQVTVAS	high polyreactivity
QVQLVESGGGLVQAGGTLRLSCAASGFIFGYNAMGWYRQAPGKERELVARINSGGNTNYADSVKGLFSISRDNAKNTVYLLMNSLKPEDTAVYYCARDASNRYDYWRQGTQVTVSS	low polyreactivity
QVQLVESGGGLVQAGGTLRLSCAASGFIFTRYAMGWYSQAPGKERELVAAIKLSGTSTYYADSVKGRFTISRDNAKYTVYLQMNSLKPEDSAVYYCAATSSYIYPYGYWGQGTQVTVSS	high polyreactivity
QVQLVESGGGLVQAGGTLRLSCAASGFTFGFYAMGWYRQAPGKERELVAAITWSGGSTYYADSVKGRFTISRDNAKNTVYLQMNSLKPEDTAVYYCNAYTYGSEFDYWGQGTQVTVSS	high polyreactivity
QVQLVESGGGLVQAGGTLRLSCAASGFTFTSNAMGWYRQEPGKERELVAAITSSGGITYYADSVKGRFTISRDNAKNTVYLQMNSLKPEDNAVYYCAASISSYNSPGYGYWGQGTQVTVSS	low polyreactivity
QVQLVESGGGLVQAGGTLRLSCAASGFTFYSNTMGWYRQAPGKERELFAAITRTGVSTYYADSVKGRFTISRDNAKNTVYLQMNSLKPEDTAVYYCAALVKGQGTVHRYYYLGQGTQVTVSS	high polyreactivity
QVQLVESGGGLVQAGGTLRLSCAASGGTFATYAMGWCRQGPGKERELVAAITQSGGTTYYADSVKRRFTISRDNANNTVYLQMNSLKPEDTAVYYCNAEASQAVYYAYEYWGQGTQVTVSS	low polyreactivity
QVQLVESGGGLVQAGGTLRLSCAASGIIFVWNAMGWYRQAPGKERELVAAITNGGSTYYADSVKGRFTISRDNAKNTVYLQMNSLKPEDTAVYYCNVRYFFRFRDDYWGQGTQVTVSS	low polyreactivity
QVQLVESGGGLVQAGGTLRLSCAASGIIFYYYAMGWYRQAPGKERELVAAITGTGSRTYYADSVKGRFTISRDNAKNTVYLQMNSLKPEDTADYYCNARSFATGSKVPARGYWGQGTQVTVSS	high polyreactivity
QVQLVESGGGLVQAGGTLRLSCAASGITFHRYDMGWYRQAPGKERELVADITWSGGSTYYADSVKGRFTISRDNAKNTVYLQMNSLKPEDTAVYYCAADASTYTYTPYDNWGQGTQVTVSS	low polyreactivity
QVQLVESGGGLVQAGGTLRLSCAASGRIFSRYVMGWYRQAPGKQRELVASISWSGGSTRYADSVKGRFTISRDNAKNTVYVQMNSLKPEDTAVYYCAARFILSKYGSGVRYNYWGQGTQVTVSS	high polyreactivity
QVQLVESGGGLVQAGGTLRLSCAASGRISAFNAMGWYRQAPGKERELVAAIHVSGGNTYYADSVKGRFTISRDNAKNTVYLQMNSLKPEDTAVYYCAAERRRWGVDYYYWGQGTQVTVST	high polyreactivity
QVQLVESGGGLVQAGGTLRLSCAASGRISTHNAMGWYRQAPGKERELVAAITSGGRTTYADSVKGRFTISRDNAKNTVYLLMNSLKPEDTAVYYCNADTGLGSLDFDKRDYWGQGTQVTVSS	low polyreactivity
QVQLVESGGGLVQAGGTLRLSCAASGRTFAYNAMGWYRQAPGKERELVAAITWSGDSTYYADSVKGRFTISRDNAKKTVYLQRNSLKPEDTAVYYCAADYFGGPSYEFDYWGQGTQVTVSS	low polyreactivity
QVQLVESGGGLVQAGGTLRLSCAASGRTFNTYAMGWYRQAPGKERELVAAISSGGRTYYADSVKGRFTISRDNAMLTVYLQMNSLKPEDTAVYYCAAKRFQYRTLYEFWGLGTQVTVSS	high polyreactivity
QVQLVESGGGLVQAGGTLRLSCAASGRTFYFYAMGWYRQAPGKERELVAAITSRVGRTYYADSVKGRFTISRDNAKNTVYLQMNSLKPEDTAVYYCAAEGVYRMGYWGQGTQVTVSS	high polyreactivity
QVQLVESGGGLVQAGGTLRLSCAASGRTIKQNAMGWYRQAPGKERELVATIRNGGNTNYADSVKGRFTISRDNAKNNVYLQMNSLKPEDTAVYYCAAARSPYKYSYWGQGTQVTVSS	high polyreactivity
QVQLVESGGGLVQAGGTLRLSCAASGRTYYGYAMGWYRQATGKERQLVAAIRSTTGSTYYADSVKGRFTISRDNAKITVYLQMNSLKPEDTAVYYCASAYPFYADMDYWGQGTQVTVSS	low polyreactivity
QVQLVESGGGLVQAGGTLRLSCAASGSIFPRYGMGWYRHAPGKERELVAAISGSGGSTYYADSVKGRFTISRDNAKNTVYLQMNSLKPEDTAVYYCNKLRRRVNRDIDDYWGQRTQVTVSS	high polyreactivity
QVQLVESGGGLVQAGGTLRLSCAASGSIFTYNAMGWYRQAPGKERELVAAITRSGGRTYYADSVKGRFTISRDNAKNTVYLQMNSLKPEDNAVYYCNTLRVGWGQGTQVTVSS	high polyreactivity
QVQLVESGGGLVQAGGTLRLSCAASGSIFWSYAMGWYRQAPGKEREFVASITGSGGTTTYADSVKGRFTISRDNAKNTVYLQMISLKPEDTAVYYCNARLHGWYHVYYIYDYWGQGTQVTVSS	low polyreactivity
